This note sets out measurements from publication doi:10.1101/2023.04.13.536796.

The target of this test is SEL1L S658P, endogenous, liver of knock-in mice (mouse (endogenous in liver)) (UniProt Q9Z2G6). The test can be described thus: co-IP.
UniProt Q9Z2G6, sequence (Q9Z2G6 22-790, stated change not applied): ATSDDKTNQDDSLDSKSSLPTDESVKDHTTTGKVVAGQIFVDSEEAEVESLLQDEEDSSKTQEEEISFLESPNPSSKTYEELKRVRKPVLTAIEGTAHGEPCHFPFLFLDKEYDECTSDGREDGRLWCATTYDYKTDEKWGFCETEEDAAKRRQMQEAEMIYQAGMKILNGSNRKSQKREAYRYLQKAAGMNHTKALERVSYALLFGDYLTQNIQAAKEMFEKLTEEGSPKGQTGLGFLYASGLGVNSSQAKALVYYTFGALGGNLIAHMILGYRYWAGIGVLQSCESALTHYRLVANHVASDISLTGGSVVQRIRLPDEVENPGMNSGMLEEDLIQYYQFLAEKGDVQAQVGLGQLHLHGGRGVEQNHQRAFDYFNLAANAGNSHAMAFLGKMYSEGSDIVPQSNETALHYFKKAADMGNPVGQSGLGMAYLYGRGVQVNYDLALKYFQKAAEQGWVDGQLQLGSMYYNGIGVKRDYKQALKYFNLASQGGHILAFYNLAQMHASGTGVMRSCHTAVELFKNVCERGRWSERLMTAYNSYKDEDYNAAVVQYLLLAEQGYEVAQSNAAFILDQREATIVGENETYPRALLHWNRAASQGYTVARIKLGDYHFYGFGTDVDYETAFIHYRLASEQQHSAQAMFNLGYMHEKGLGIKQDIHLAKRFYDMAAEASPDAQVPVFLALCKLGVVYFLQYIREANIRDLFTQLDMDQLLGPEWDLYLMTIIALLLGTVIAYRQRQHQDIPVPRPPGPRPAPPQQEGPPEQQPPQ

As to “HRD1, endogenous, mouse liver (from UniProt Q9DBY1 1-612) (natural protein)”, the fold reduction of co-precipitated HRD1 against WT livers was 5 fold.
